# Measured values as given in a protein production outcome set (Wang et al. 2014).
# Assay: label from the status in PepcDB records
# 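Also: failed if final PepcDB status was selected cloned or expressed and not failed if soluble or beyond.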
row,Sequence,protein production
1,TACKGDYKDAARQVRCGTLVVDETRGDPKSRRITVAVAIVKASEPKAGQPPVVYLHGGPGGSAVGGLPRMLKSKAALEYVAVDQDWIFIDQRGGGQSDPNLDCPGANLTDAGPPSDKDAQAIIACMKAFQAKGVNLSRYNAVEVAKDVQDLRKLLKLPLIDLYGGSYGTRIEAAIQTHAAEGVRAVVQDSPWPPEADWTVGGPAMVSSSIDIVMAKCAKVAECAKRYPDLKAKLAVVAERWLAGPQTINGKTYTADDLGGWLMDASYFTASVLPRDLWKIIEGDVSPVAEFVESRDYYSEGQFMTHLCKEEIPFEARAAVADGTQKDPIARLMVASMQRIHDVCAAIDVGPINKVEQAPVKTAIPTLFLAAEIDPGCPPELTRAAAKGYQGSQVVIVTNATHGVSRSSPCVRKMIRSFFQDPTKPVDRSCLPAADTPMAFMYQ,failed
2,TAEEVVTVALRCPSGNVLRRRFLKSYSSQVLFDWMTRIGYHISLYSLSTSFPRRPLAVEGGQSLEDIGITVDTVLILEEKE,failed
3,TDGEGEDPAEYPTVNHKIEKAIEVTKTGLEEYENPVVMWTGGKDSTLTLYFVKEVAERFDLEVPPVVFIDHYQHFDELIDFVEHWADEWDLDVIWARNEDVGNYVDENGLEPGDDIPVDELSEHNQHHIRNILEYEEDTFPFLLDTYVGNHLLKTVALNDTIEEHDVDGILSGIRWDEQESRADETFFSPRHDPDIYPPHDRIQSILQFAEADVWEAFWNFVVPDTVEGYPDEGYVPQGQDDLPEGIEKEDVPVSPKYFAGFRSLGSE,failed
4,TDLPMPRVTVFALWEPLAIMRELWAEGGIGPGRLAVMDRVKGPKTGLLMRHQDKPGGVAFVAIHDGVAMLHALEIPPHQRRKGLGKWAMRGAAFWALDNGAHTLSVICTKANEGANALYRSLGMQLVGEYHYRLLQE,failed
5,TELQAVTGRAEIAGERLKLLYDAGLGIGTTLDVLRTADELAQVAVPRFADFVTVDLADAVLHGEEPAPTATDLRRTAVCGIRDDHPLYELGQLIDFLPSTPQARGYGSGYSELVTDLSTATGWHAQDPERTKAIIDYGIHSLIAAPIQARGVVLGMANFWRSKQHEPFVEEEMSLAEELVARAAVSIDNARRYTREHALAVTLQRSLLPRALP,failed
6,TGEREYIKKLEPMLKELGWWGKAKDENGNEVQLGSPRRLRTILRTNKITAYHAARYAQQMENVDEQPYWRYVAVNDSRTRASHLALHGKIYRADDPIWQTMYPPNDWGCRCRVEALS,failed
7,THSETITIPVFDTQVAGTLLTPRAKLPGVLFVHGWGGSQRFDLSRARDIAGLGCICLTFDLRGHAATEAQRRQVTREDSLRDIMAAYDALIAHPAVDTSAIAVVGSSYGGYLAAILTTLRAVRWLALHVPALYRDDEWAQPKLQLDRAAISAYRHATVAPEGNRALSACSSFRGDVLIVEAEHDDYIPHSTIMSYRGAFLHSHSLTHRIVDGADHALSDKRCQQAYSSILLNWATEMV,failed
8,TIDIDLQKKVESLLEKQISKLRSQGAKDMDNALMVVQNPKNGDILAIAGKQIDKQGKLKDYDIGNFTAQYTVGSSVKGGTLLAGYQNKAINVGETMVDEPLKFQGGLTKRSYFNKNGHVSIDDKQALMHSSNVYMFKTALKLAGDPYTSGMSLPNNIADAGRKLRKGLNQVGLGLKTGIDLPNETPGQIEPLTNNPGNYLDLAIGQYDTYTPLQLSQYVSTIANDGYRIQPHIGLSIYESTNKDETGPLKRKIKGNVLNKVNNSNDEIKEVQEGFKMAFNEKQGTGYASFRNTVVPSAGKTGTAEVFQDGEPRVNSTYIGYAPVDDPKLSFSIVYTNQPVPPPWLNGGDLGRDVINYYFKDKDNKKDDSQSNNEEKED,failed
9,TINSKFQSDVSAALKKYMGTDLTTGGYAAVMNPKTGGVYAMAGWDRNVKTGKLTQNDLAAIQDPIVMGSAVKPAMVSMALQAGVITPTSSTQDDQIIKLAGTAEKHSDFNPTGVKIPLTAEQALEDSSNTYMIQLALKMNGTPYVSGMSLNVSSNIWQKMRNGFGEFGLGSRTGIDLPGETAGYKGSITGSLASSFIDEAFGQYDTYSVIQMARFVSTIANGGYLVQPKVVASVLKSGKNGVRSSVASEVSPTIQGYVKMNNAQWNVIKTGMWDVANGSSQYNTGGTLIHELSPKVAAKTGTAESFVDGQQTQNDTLIMYSPYAPFAIAIAYVGDKVDSFGAVEKAAAAIYNAFWKDVMPKPND,failed
10,TKIKSVRTRVWNWTGPTVPPQGNFCTNASDALWIQGDAMASFRFHQWLTCEVETEDGTIGIGNAALAPNVVKQAIDEWYAPLVIGEDPFDYAYLWEKMYRRTHAWGRKGIGMTAISAIDIAIWDLMGKLVGKPVFKLLGGRTKEKIPVYYSKLYADSIPAMQAEAEEAQKHGYQGYKTRFGYGPKDGPAGMRENLKRVEALREVLGYDVDLMLECYMGWNLDYTKRMLPKLERFEPRWLEEPVIADDVAGYAELNAMGIVPISGGEHEFSVMGCAELINRKAVSVLQYDTNRVGGITAAQKINAIAEAAQIIVIPHAGQMHNYHLTMANMNCPISEYFPVFDVEVGNELFYYIFDGDPEAVDGYLQLDDDTPGLGITISDAHLKHFEITE,not failed
11,TKTTTQGAKSGVFDTVDEAVQAAVIAQNCYKEKSLEERRNVVKAIREALYPEIETIATRAVAETGMGNVTDKILKNTLAIEKTPGVEDLYTEVATGDNGMTLYELSPYGVIGAVAPSTNPTETLICNSIGMLAAGNAVFYSPHPGAKNISLWLIEKLNTIVRDSCGIDNLIVTVAKPSIQAAQEMMNHPKVPLLVITGGPGVVLQAMQSGKKVIGAGAGNPPSIVDETANIEKAAADIVDGASFDHNILCIAE,not failed
12,TLPGRISRERRGHLLLLGLDRVAKRNAFDLPMLDDLVAALGEYEADDQLRCALLFAHGEHFTAGLDLANVGETFRQGWKLPEGAVDPWGTFGGRRPSKPLVVAVQGYCYTIGIELMLAADINLCASNARFAQLEVQRGILPFGGATLRMHQVAGWGNAMRWLLTGDEFDAHEAYRLGLVQEVTAPEDLLDHAIALAERVAAQAPLGVRATLGSARQALLEGEAVAAAALPEAARRLLDSEDAKEGLRALQERRPGRFE,failed
13,TPGRGSRVTDQGICPKHQEALKLFCEVDEEAICVVCRESRSHKQHSVVPL,not failed
14,TPIINDPETVKLFLLTELQHEEREVFMVLFLDNQHRLIKKERLFLGTIYVSAVYPREIIKEALYCNAAALILAHNHPSGITEPSYSDQLITKKIQDAAELMEIRVLDHLIVGKSDCYSFAENCLL,failed
15,TPSRVEAFDNSNIHGTDPVSAMVTFLDGKPSKNDYRKYKIKTVEGPDDYATMREVIRRRYWRVLKEGLPMPDLILIDGGKGQIDSAKDVLTNELGLDIPVAGLAKDDKHRTSQLLFGDPLEIVPLERNSQEFYLLQRMQDEVHRFAITFHRQLRSKTGFQSILDGIPG,failed
16,TQNLREKQEIAKRAACDIQDHECIFLDAGSSTFELIQYIEAKDITVVTNGMTHVEELLKHGIKTLMVGGQVKPTTMATVGANALETLRRYCFDRAFIGMNGIDVKYGLTTPDEQEALIKETAMKLSNHKYVLVDQSKFNQIYFARVSILDGLSIITSQKAMQSKMTEAYMNEFNFIGGKS,failed
17,TQSNLYSFLKAISNRFSQYNYSSILCVTSISFDIFILETLFPIFMGKTCVFASDEEIEDISKLTQLIRIYQVDTIQSTPSRWGIFTEDEQLMTLLKERLKLVLVGGEKLTKNIAEKLLSIGGKLINLYGPTEATVWAFASEVTDPNQIYLGEP,failed
18,TRMAPVIMVPGSSASQNRFDSLITELGKETPKKHSVLKLTVQTDGTIKYSGSIAANDNEPFIVIGFANNRDGKANIDKQAVWLNTAFKALVKTYHFNHFYALGHSNGGLIWTLFLERYLKESPKVHIDRLMTIASPYNMESTSTTAKTSMFKELYRYRTGLPESLTVYSIAGTENYTSDGTVPYNSVNYGKYIFQDQVKHFTEITVTGANTAHSDLPQNKQIVSLIRQYLLAETMPDK,not failed
19,TRMAPVIMVPGSSASQNRFDSLITELGKETPKKHSVLKLTVQTDGTIKYSGSIAANDNEPFIVIGFANNRDGKANIDKQAVWLNTAFKALVKTYHFNHFYALGHSNGGLIWTLFLERYLKESPKVHIDRLMTIASPYNMESTSTTAKTSMFKELYRYRTGLPESLTVYSIAGTENYTSDGTVPYNSVNYGKYIFQDQVKHFTEITVTGANTAHSDLPQNKQIVSLIRQYLLAETMPDKVRQKNAQRVQN,not failed
20,TVLYVHGGAWFQDPLENHFEYLDLLVDALDARVIMPVYPKIPHRDYRTTFELLTKIYKRLLTKIDEPENLVIIGDSAGGQIALAFAQMLKKEQLSQPGHIVLISPVLDATFKNPEARKYEKEDPMLGIDGSKYLVELWAGDAPLDDYKMSPMNGDLEGLGHITLTVGTKETLYPDAVKFSHMLNDKGIKHQFIPGYNLFHIYPLFPIPERQRFLEQLKKII,failed
21,VAARPPALCKGCSHRDVYDALNEVLTEYPNGRVFSDIGCYTLGALPPYEAINSCVDMGASITMAKGAADAGLFPAVSVIGDSTFTHSGITGLLDAINENSNITVIISDNESISMTGGQHSSAYGKVEAICRGIGVDPDHIRELLPVPKNHDELCSIIREEINYEGVSVIIPRRVCIQKHARDAKAAKRAKAKE,failed
22,VADASDPIRPLVEALNAEAPLKLWSVLVTCLGDVSRDGVIEVSGVALSSFVERMGLQPQAMRVALHRLKRDGWVESRRLGRVGFHRLSDSALTQTRAVAGRIYGPGAGPAPWHLAGMPPDAPDGLSLLPDTLSATPISRRFALICGPLEDVPEDWLLTAPSGRGLPVWVQDVVVEAGCEAEFKALERTLAQIDKVPDTRLERFTLRVLVLHAWRRLILRSSPAAEAALGGARAEISCRARVHQLLDQLGSVEPDWDLPATEDAAS,not failed
23,VALCVLRRSDGRVVLENTLSQQWLGNGSERDQLCSGWIEQAFDPARPNSSDYFETADGRHLYLSSAPTRYNGEDVLFCAFSDISARKQIEAALEEAKRLADTANEAKTLFLATMSHEIRTPLYGVLGTLELLSRTQ,failed
24,VARTAEEQANHDLVIEMYNKVLIAMDSSAVDRYIAPGYVQHSSLAEPSVEALKGFLDRVRAESPDARQTIHRSFVDGDHVITHTHVERWPGDAGLAVVDIFRVEGGMIVEHWDVIQDVPANPVNPNSMF,not failed
25,VDKINPDLRVHLRLDRGEAILSLDLSGHSLHQRGYRLQQGAAPLKENLAAAILIRAGWPRIAAEGGALADPMCGVGTFLVEAGMIAADIAPNIKRERWGFSAWLGHVPTLWRKLHDEALARAEAGLAKTPSWIRGYEADPRLIQPGRNNIERAGLSDWIKVYQGEVATFEPRPDQNQKGLVICNPPYGERLGDEASLLYLYQNLGERLRQACLNWEAAVFTGAPDLGKRMGIRSHKQYSFWNGALPCKLLLIKVTPDQF,failed
26,VEGPCEAKIECSDNGDGTCSVSYLPTKPGEYFVNILFEEVHIPGSPFKADIEMPFDPSKVVASGPGLEHGKVGEAGLLSVNCSEAGPGALGLEAVSDSGTKAEVSIQNNKDGTYAVTYVPLTAGMYTLTMKYGGELVPHFPARVKVEPAVDTSRIKVFGPGIEGKDVFREATTDFTVDSRPLTQVGGDHIKAHIANPSGASTECFVTDNADGTYQVEYTPFEKGLHVVEVTYDDVPIPNSPFKVAVTEGCQPSRVQAQGPGLKEAFTNKPNVFTVVTRGAGIGGLGITVEGPSESKINCRDNKDGSCSAEYIPFAPGDYDVNITYGGAHIPGSPFR,failed
27,VEVESFLVHPGDLLQLRCRLRDDVQSINWLRDGVQLAESNRTRITGEEVEVQDSVPADSGLYACVTSSPSGSDTTYFSVNVSDALP,not failed
